Experimental data from patent US20230203200A1.

Columns and labels:
[1] = target: CD3 (CD3ε/δ-complex) on T cells (human) (UniProt P07766); test: flow cytometry on Jurkat cells (CD3+ and TCRab+), PE-labeled secondary reagent
[2] = target: CD3 (CD3ε/δ-complex) on T cells (human) (UniProt P07766); test: flow cytometry on Jurkat cells (CD3+, TCRab+), bound TCER stained with a PE-labeled secondary reagent
[3] = target: TCR alpha/beta on Jurkat cells (human); test: flow cytometry on Jurkat cells (CD3+ and TCRab+), PE-labeled secondary reagent

Sequence of UniProt P07766 (P07766 23-207, stated change not applied, chain 1 of 2): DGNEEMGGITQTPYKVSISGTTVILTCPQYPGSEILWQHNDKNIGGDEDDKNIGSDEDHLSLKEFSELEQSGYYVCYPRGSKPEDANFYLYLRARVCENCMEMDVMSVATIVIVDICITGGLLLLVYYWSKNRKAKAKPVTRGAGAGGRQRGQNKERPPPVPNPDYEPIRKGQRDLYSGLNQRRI
Sequence of UniProt P07766 (P04234 22-171, stated change not applied, chain 2 of 2, further chain): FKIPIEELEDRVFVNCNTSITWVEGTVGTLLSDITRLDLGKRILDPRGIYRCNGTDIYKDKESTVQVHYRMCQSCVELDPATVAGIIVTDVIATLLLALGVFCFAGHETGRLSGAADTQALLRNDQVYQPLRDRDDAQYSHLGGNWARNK

EC50 [1] [nM] | EC50 (read off the curve) [2] [nM] | fold weaker binding than the UCHT1-based TCER®-molecule [3] [fold] | Binder
2 to 3 | 2 | – | PRAME-004 targeting TCER® molecule with the recruiting domains of humanized UCHT1(V17) (protein) chain 1: QKEVEQNSGPLSVPEGAIASLNCTYSDRGSQSFFWYRQYSGKSPELIMSIYSNGDKEDGRFTAQLNKASQYVSLLIRDSQPSDSATYLCAAVIDNDQGGILTFGTGTRLTIIPNIQNGGGSGGGGDIQMTQSPSSLSASVGDRVTITCRASQDIRNYLNWYQQKPGKAPKLLIYYTSRLHSGVPSRFSGSGSGTDYTLTISSLQPEDIATYFCQQGQTLPWTFGQGTKVEIKEPKSSDKTHTCPPCPAPPVAGPSVFLFPPKPKDTLMISRTPEVTCVVVDVSHEDPEVKFNWYVDGVEVHNAKTKPREEQYQSTYRVVSVLTVLHQDWLNGKEYKCKVSNKALPASIEKTISKAKGQPREPQVYTLPPCRDELTKNQVSLWCLVKGFYPSDIAVEWESNGQPENNYKTTPPVLDSDGSFFLYSKLTVDKSRWQQGNVFSCSVMHEALHNHYTQKSLSLSPGK chain 2: EVQLVQSGAEVKKPGASVKVSCKASGYSFTGYTMNWVRQAPGQGLEWMGLINPYKGVSTYAQKFQDRVTLTVDKSTSTAYMELSSLRSEDTAVYYCARSGYYGDSDWYFDVWGQGTLVTVSSGGGSGGGGKAGVTQTPRYLIKTRGQQVTLSCSPIPGHRAVSWYQQTPGQGLQFLFEYVHGEERNKGNFPGRFSGRQFSNSSSEMNISNLELGDSALYLCASSPWDSPNVQYFGPGTRLTVTEDLKNEPKSSDKTHTCPPCPAPPVAGPSVFLFPPKPKDTLMISRTPEVTCVVVDVSHEDPEVKFNWYVDGVEVHNAKTKPREEQYQSTYRVVSVLTVLHQDWLNGKEYKCKVSNKALPASIEKTISKAKGQPREPQVCTLPPSRDELTKNQVSLSCAVKGFYPSDIAVEWESNGQPENNYKTTPPVLDSDGSFFLVSKLTVDKSRWQQGNVFSCSVMHEALHNHYTQKSLSLSPGK
– | – | 50 to 100 | PRAME-004 targeting TCER® molecule with the recruiting domains of humanized BMA031(V10) (protein) chain 1: QIQMTQSPSSLSASVGDRVTITCSATSSVSYMHWYQQKPGKAPKRWIYDTSKLASGVPSRFSGSGSGTDYTLTISSLQPEDAATYYCQQWSSNPLTFGGGTKVEIKGGGSGGGGKAGVTQTPRYLIKTRGQQVTLSCSPIPGHRSVSWYRQTPGQGLQFLFEYVHGEERNKGNFPGRFSGRQFSNSSSEMNISNLELGDSALYLCASSPWDSPNVQYFGPGTRLTVTEDLKNEPKSSDKTHTCPPCPAPPVAGPSVFLFPPKPKDTLMISRTPEVTCVVVDVSHEDPEVKFNWYVDGVEVHNAKTKPREEQYQSTYRVVSVLTVLHQDWLNGKEYKCKVSNKALPASIEKTISKAKGQPREPQVYTLPPCRDELTKNQVSLWCLVKGFYPSDIAVEWESNGQPENNYKTTPPVLDSDGSFFLYSKLTVDKSRWQQGNVFSCSVMHEALHNHYTQKSLSLSP chain 2: QKEVEQNSGPLSVPEGAIASLNCTYSDRGSQSFFWYRQYSGKSPELIMSIYSNGDKKDGRFTAQLNKASQYVSLLIRDSQPSDSATYLCAAVIDNDQGGILTFGTGTRLTIIPNIQNGGGSGGGGEVQLVQSGAEVKKPGASVKVSCKASGYKFTSYVMHWVRQAPGQGLEWMGYINPYNDVTKYAEKFQGRVTLTSDTSTSTAYMELSSLRSEDTAVHYCARGSYYDYDGFVYWGQGTLVTVSSEPKSSDKTHTCPPCPAPPVAGPSVFLFPPKPKDTLMISRTPEVTCVVVDVSHEDPEVKFNWYVDGVEVHNAKTKPREEQYQSTYRVVSVLTVLHQDWLNGKEYKCKVSNKALPASIEKTISKAKGQPREPQVCTLPPSRDELTKNQVSLSCAVKGFYPSDIAVEWESNGQPENNYKTTPPVLDSDGSFFLVSKLTVDKSRWQQGNVFSCSVMHEALHNHYTQKSLSLSP
